From PMC3686692 (PLoS ONE, 2013)

Tests used:
[1] = Population pharmacokinetic model of peginesatide plasma concentrations (NONMEM); format: in vivo, human; details: for Subcutaneous bioavailability (F1): fraction
Text: (§1) These studies were: AFX01-02 (NCT00109291) [data on file], AFX01-03 (NCT00228449), AFX01-04 (NCT00228436) and AFX01-07 (NCT00434330) [data on file]). Data were also utilized from one Phase 3 study, AFX01-14 (NCT00597584) conducted in hemodialysis patients. All plasma concentration-time data obtained in Phase 2 (with frequent PK and PD sampling scheme) [7, 8, AFX01-2, AFX01-07] and Phase 3 studies, with sparse PK and frequent PD sampling schemes, were used for the development of the PK model.
The lower and upper limits of quantification for the assay were 25 and 600 ng/mL, respectively.
(§2) The concentration of hemoglobin was measured using a standard laboratory method in a Clinical Laboratory Improvement Amendments certified central laboratory. Baseline weight was used to calculate the dose (in mg/kg). The first order conditional estimation (FOCE) and first-order (FO) method as implemented in NONMEM were used for PK and PK-PD modeling. Model selection criteria included a statistically significant reduction of the objective function value (OFV) (α = 0.05) for nested models, Akaike information criteria for non-nested models, reductions in both residual (σ^2) and inter-subject (ω^2) variability, improvement in the precision of parameter estimates as measured by the percent standard error of the mean (%SEM), and visual examination of standard goodness-of-fit plots.
Several different PK models were evaluated as base structural PK models. These included: 1-compartment and 2-compartment with first-order absorption and elimination; 1-compartment and 2-compartment with first-order absorption and Michaelis-Menton (MM) elimination; and a combination of zero- and first-order absorption with linear and MM elimination. Life-span, negative-feedback and precursor-dependent Lifespan Indirect Response (LIDR) models were evaluated as potential base PK-PD models.
In order to avoid possible multicollinearity issues, GAM analyses were performed for PK and PD parameters using different combinations of covariates that were deemed to be highly correlated (r>0.6) along with the remaining covariates. The potential covariates selected following GAM analysis were then tested using a standard approach of stepwise forward addition (P<0.05) followed by stepwise backward elimination procedure (P<0.005). […] The relationship between continuous covariates and PK and PD parameters were evaluated using linear, exponential and power functions as described in Equations 9, 10, and 11 with the covariates centered or scaled at their median values: [drawing 11] [drawing 12] [drawing 13]
The adequacy of the final PK and PK-PD models was evaluated using a simulation-based prediction-corrected (pc) visual predictive check (VPC) method (1000 replicates). Due to the dose adjustment algorithm used in these trials, the pcVPC was utilized. This technique provides an enhanced ability to diagnose possible model misspecification by removing the variability introduced in an ordinary VPC when binning across a potentially large variability in dose or other influential covariates. The percent of observations outside the 90% prediction interval were also calculated to evaluate predictive ability of the model. A non-parametric bootstrap procedure (1000 bootstrap runs) was also employed to evaluate the precision of the parameter estimates and the robustness of the final PK and PK-PD models.
Inter-individual variability (IIV) was estimated for volume of the central compartment (V2), the absorption rate constant (Ka) and the concentration required to reach 50% of maximum rate of elimination (KM) using exponential models, assuming a log-normal distribution for each parameter.

[2] = system: hemoglobin; assay: Population PK-PD model (modified precursor-dependent lifespan indirect response) of hemoglobin levels; format: in vivo, human; details: final PK-PD model
Text: as §1
as §2, with “plots. […]” for “plots.”
In the study, baseline erythropoietin levels were not measured in all patients. […]
A generalized additive modeling (GAM) approach along with graphical analysis (plots of the inter-subject error terms for each parameter [ηi] versus covariates) was used for initial covariate screening and to determine the functional form of the relationship between the covariates and PK and PD parameters of peginesatide. […] The relationship between continuous covariates and PK and PD parameters were evaluated using linear, exponential and power functions as described in Equations 9, 10, and 11 with the covariates centered or scaled at their median values: [drawing 11] […]
The adequacy of the final PK and PK-PD models was evaluated using a simulation-based prediction-corrected (pc) visual predictive check (VPC) method (1000 replicates). […]

[3] = dialysis patients, cited from earlier work
[4] = cited from earlier work
[5] = system: hemoglobin; details: PK-PD model estimates from different populations and structural models; cited from earlier work
Text: The estimates of red blood cell life span (67.5 days) obtained from this analysis are consistent with previously reported values in the literature (60 to 65 days in dialysis patients), [17].

[6] = final population PK model, 672 CKD patients on/not on dialysis, IV or SC, final estimate (% SEM)
[7] = final population PK model, SC, final estimate (% SEM)
[8] = final population PK model, median bootstrap estimate, 870/1000 converged runs
[9] = median bootstrap estimate, 935/1000 converged runs

peginesatide
effect of concomitant medications on PK or PD parameters ([1]; concomitant medications taken by >10% of the patient population during 80% of the trial period): did not alter | total volume of distribution ([1]; estimated population value, IV and SC administration): 0.043 L/kg | Central volume of distribution (V2) [1, 6]: 35.6 (2.7) mL/kg | Concentration needed to reach 50% of Vmax (KM) [1, 6]: 1880 (14.6) ng/mL | Maximum rate of elimination (Vmax) [1, 6]: 45.3 (10.0) ng/mL/hr | Absorption rate constant (Ka) [1, 7]: 0.00865 (15.6) 1/hr | Subcutaneous bioavailability (F1) [1, 7]: 0.498 (4.4) | Peripheral volume of distribution (V3) ([1]; final population PK model, final estimate (% SEM)): 7.44 (10.3) mL/kg | Subcutaneous bioavailability (F1) [1, 8]: 0.499 | Absorption rate constant (Ka) [1, 8]: 0.00869 h⁻¹ | Age slope for V2 [1, 8]: –0.125 L/yr | BMI power for V2 [1, 8]: –0.485 | Central volume of distribution (V2) [1, 8]: 35.6 mL/kg | Concentration needed to reach 50% of Vmax (KM) [1, 8]: 1860 ng/mL | ETHN shift for Ka [1, 8]: 0.00815 (1/hr) | Maximum rate of elimination (Vmax) [1, 8]: 44.7 ng/mL/h | Peripheral volume of distribution (V3) [1, 8]: 7.42 mL/kg | TBILI slope for V2 [1, 8]: 0.482 L/(g/L) | bioavailability after SC administration ([1]; model estimated, final population PK model): approximately 50% | linearity of pharmacokinetics ([1]; population PK model, over the evaluated dose range): non-linear pharmacokinetics | Drug concentration required for 50% of maximum response (EC50) ([2]; 517 hemodialysis patients, IV or SC, plasma concentration, final estimate (% SEM)): 401 (2.0) ng/mL | Drug concentration required for 50% of maximum response (EC50) [2, 9]: 417 ng/mL | Maximum pharmacologic effect (Emax) [2, 9]: 0.564 | mean volume of distribution ([3]; IV administration, mean ± standard deviation): 0.0349 ± 0.0138 L/kg | accumulation ([3]; IV or SC administration every 4 weeks): No accumulation | bioavailability ([3]; SC administration): approximately 46% | time at which Cmax is reached ([3]; SC administration): approximately 48 hours | volume of distribution ([4]; healthy volunteers): 0.035 L/kg | half-life (T1/2) ([4]; human, in vivo, sc): 53.0 ± 17.7 h

darbepoetin alfa
EC50 [5]: 0.41 ng/mL | Emax [5]: 0.637

methoxy polyethylene glycol-epoetin beta [Micera]
EC50 [5]: 0.898 ng/mL | Emax [5]: 0.425
